Where no end group is shown, it is not given here.
Target: T1, MMP-9 (Homo sapiens, UniProt P14780)
T1 construct: purchased Calbiochem
Assay: MMP-9 cleavage efficiency assay (RP-HPLC)
Assay type: biochemical
Conditions: 120 μM, MMP-9 24 hrs, disappearance of peak at 29 minutes
Description: To 5 μL of enzyme was added 0.4 μL of a 24 mM π-aminophenyl mercuric acetate solution in freshly prepared 0.1 M NaOH. The enzyme solution was heated at 37° C. for 2 hrs prior to use.
120 μM of M1 (with respect to peptide) and 120 μM of Peptide-1 were treated with MMP-9 (100 μU, 1.25 μL) for 24 hrs. The control was performed using 120 μM of Peptide-1 without treatment with MMP-9. These samples were then analyzed by RP-HPLC following inactivation of MMP-9 at 65° C. for 20 mins (FIG. 21A). Peak A is the intact, full length Peptide-1 without treatment with MMP-9, and Peak B is the large fragment of Peptide-1 cleaved by MMP-9 as confirmed by MALDI-MS shown in FIG. 21B, left.

T1 sequence (P14780 107-707 limits assumed): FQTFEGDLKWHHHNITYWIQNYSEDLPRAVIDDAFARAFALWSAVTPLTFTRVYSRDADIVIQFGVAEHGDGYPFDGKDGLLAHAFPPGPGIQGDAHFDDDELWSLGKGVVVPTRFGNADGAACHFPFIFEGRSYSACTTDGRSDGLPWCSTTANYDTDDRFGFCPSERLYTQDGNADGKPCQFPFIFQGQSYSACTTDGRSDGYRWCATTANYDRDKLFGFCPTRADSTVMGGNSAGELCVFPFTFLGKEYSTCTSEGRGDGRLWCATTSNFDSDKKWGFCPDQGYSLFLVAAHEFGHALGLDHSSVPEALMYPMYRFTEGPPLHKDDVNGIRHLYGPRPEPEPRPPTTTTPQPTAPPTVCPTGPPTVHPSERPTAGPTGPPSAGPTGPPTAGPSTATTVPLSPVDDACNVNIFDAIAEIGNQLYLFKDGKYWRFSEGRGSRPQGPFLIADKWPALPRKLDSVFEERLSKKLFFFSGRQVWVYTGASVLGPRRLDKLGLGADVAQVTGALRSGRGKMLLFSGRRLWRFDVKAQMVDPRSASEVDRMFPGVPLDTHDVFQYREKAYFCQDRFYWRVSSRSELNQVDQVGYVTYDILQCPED

With GPLGLAGKWAAAAKAAAAK [Peptide-1] the “MMP-9 cleavage efficiency” value was “quantitative”.
